Values belong to the molecule of their own block, whether it stands above or below them.
What was measured:
[1] = target: T1, potato lectin (Sigma) (potato, UniProt Q9S8M0 23-323); test: microcapsule retention; G: amine capsules, BS3 one-step, 1 ug VHH/cm2; potato lectin coat 1 ug/ml; 10% coverage
T1 construct: Bought glycoprotein, coated on ELISA plates
T1 sequence (looked up): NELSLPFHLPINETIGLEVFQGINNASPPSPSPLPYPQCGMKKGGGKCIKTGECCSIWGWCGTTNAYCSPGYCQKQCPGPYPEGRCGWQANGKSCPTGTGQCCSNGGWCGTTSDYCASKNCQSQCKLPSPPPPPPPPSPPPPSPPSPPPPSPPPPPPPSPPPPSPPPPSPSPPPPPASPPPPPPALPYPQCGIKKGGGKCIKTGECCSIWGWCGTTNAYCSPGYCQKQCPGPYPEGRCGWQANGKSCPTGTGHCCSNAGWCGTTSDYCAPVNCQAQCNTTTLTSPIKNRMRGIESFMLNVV

[2] = target: T1, potato lectin (Sigma); test: microcapsule retention; C: carboxyl capsules, EDC/Sulfo-NHS, 1 ug VHH/cm2; potato lectin coat 10 ug/ml; 10% coverage
[3] = target: T1, potato lectin (Sigma); test: microcapsule retention; K: amine capsules, BS3 two-step, 1 ug VHH/cm2; potato lectin coat 10 ug/ml; 10% coverage
[4] = target: T1, potato lectin (Sigma); test: microcapsule retention; C: carboxyl capsules, EDC/Sulfo-NHS, 1 ug VHH/cm2; potato lectin coat 100 ug/ml; 100% coverage
[5] = target: T1, potato lectin (Sigma); test: microcapsule retention; K: amine capsules, BS3 two-step, 1 ug VHH/cm2; potato lectin coat 1 ug/ml; 10% coverage
[6] = target: T1, potato lectin (Sigma); test: microcapsule retention; C: carboxyl capsules, EDC/Sulfo-NHS, 1 ug VHH/cm2; potato lectin coat 10 ug/ml; 100% coverage
[7] = target: T1, potato lectin (Sigma); test: microcapsule retention; H: amine capsules, BS3 one-step, 0.1 ug VHH/cm2; potato lectin coat 1 ug/ml; 100% coverage
[8] = target: T1, potato lectin (Sigma); test: microcapsule retention; G: amine capsules, BS3 one-step, 1 ug VHH/cm2; potato lectin coat 10 ug/ml; 10% coverage
[9] = target: T1, potato lectin (Sigma); test: microcapsule retention; D: carboxyl capsules, EDC/Sulfo-NHS, 0.1 ug VHH/cm2; potato lectin coat 1 ug/ml; 100% coverage
[10] = target: T1, potato lectin (Sigma); test: microcapsule retention; L: amine capsules, BS3 two-step, 0.1 ug VHH/cm2; potato lectin coat 10 ug/ml; 100% coverage
[11] = tested on: gum arabic; test: VHH binding to gum arabic in ELISA; parameters: species or system acacia tree
Description: Titration of VHH antibody fragments was performed on ELISA plates (Maxisorp, Nunc) coated with 100 μl per well 100 μg/ml gum arabic in 50 mM carbonate pH9.6. Plates were coated at 4° C. overnight and coating was continued at room temperature for 1 hour on the next day. Plates were washed three times with PBS/0.05%-TWEEN®-20 and blocked with 5% skimmed milk in PBS for 1 hour. Four-fold serial dilutions of purified VHH antibody fragments were prepared in 1% MPBS/0.05%-TWEEN®-20 in polypropylene 96-well plates. Antibody concentrations ranged from 3 μg/ml to 12 ng/ml. Antibody dilutions were transferred to the gum arabic-coated plates and VHH antibody fragments were allowed to bind for 1 hour at room temperature. Bound VHH were detected with sequential incubations with monoclonal mouse anti-histidine antibodies (Abd Serotec) and rabbit anti-mouse IgG whole molecule antibodies conjugated with alkaline phosphatase (RaM/AP) (Sigma) in 1% MPBS/0.05%-TWEEN®-20. Unbound antibodies were removed by washing three times with PBS/0.05%-TWEEN®-20 after each antibody incubation. The plates were washed an additional two times with PBS and 100 μl pNPP disodium hexahydrate substrate (Sigma) was added to each well. The absorbance at 405 nm was measured and plotted as function of antibody concentration (see Table 1).

[12] = target: unrelated antigens; test: VHH-coupled Uvitex OB microcapsules retained on wells coated with unrelated antigen; 20% surface coverage
[13] = target: unrelated antigens; test: VHH-coupled lambda-cyhalothrin microcapsules retained on wells coated with unrelated antigen; 20% surface coverage
[14] = target: unrelated antigens; test: VHH-coupled lambda-cyhalothrin microcapsules retained on wells coated with unrelated antigen; 4% surface coverage
[15] = target: unrelated antigens; test: VHH-coupled Uvitex microcapsules retained on wells coated with unrelated antigen; 20% surface coverage
[16] = target: T1, potato lectin (Sigma); test: ELISA, potato lectin coated at 100 ug/ml, VHH at 3 ug/ml, anti-histidine detection
Description: ELISA plates (Maxisorp, Nunc) coated with 100 μl per well 100 μg/ml potato lectin (Sigma) in PBS were coated at 4° C. overnight and coating was continued at room temperature for 1 hour on the next day. Plates were washed three times with PBS/0.05%-TWEEN®-20 and blocked with 5% skimmed milk in PBS for 1 hour. VHH (3 μg/ml) were transferred to the potato lectin-coated plates and VHH antibody fragments were allowed to bind for 1 hour at room temperature. Bound VHH were detected with sequential incubations with monoclonal mouse anti-histidine antibodies (Abd Serotec) and rabbit anti-mouse IgG whole molecule antibodies conjugated with alkaline phosphatase (RaM/AP) (Sigma) in 1% MPBS/0.05%-TWEEN®-20. Unbound antibodies were removed by washing three times with PBS/0.05%-TWEEN®-20 after each antibody incubation. The plates were washed an additional two times with PBS and 100 μl pNPP disodium hexahydrate substrate (Sigma) was added to each well and the absorbance at 405 nm was measured (see Table 2).

microcapsule counts (microcapsules) [1]: 7 | microcapsule counts (microcapsules) [2]: 50 | microcapsule counts (microcapsules) [3]: 197 | microcapsule counts (microcapsules) [4]: 297 | microcapsule counts (microcapsules) [5]: 215 | microcapsule counts (microcapsules) [6]: 265 | microcapsule counts (microcapsules) [7]: 173 | microcapsule counts (microcapsules) [8]: 13 | microcapsule counts (microcapsules) [9]: 227 | microcapsule counts (microcapsules) [10]: 787
Molecule: Control VHH

B1: VHH 3E6 (VHH)
VHH: QVQLQESGGGLVQPGGTLSLSCAASGFNVRWYGMGWFRQAPGKEREGVACISALQETTAYADSVKGRFTLSRDNPKNTLSLQMNNLQPEDTGVYYCATTDCDDSSRMTYTSYLGQGTQVTVSS
notes: also called Monovalent VHH 3E6
absorbance at 405 nm ([11]; Table 2, gum arabic coat, VHH 3 μg/ml): 0.882 | absorbance at 405 nm ([11]; [VHH] 0.0117188 μg/ml (0.78125 nM), gum arabic 100 μg/ml): 0.392 | absorbance at 405 nm ([11]; [VHH] 0.04688 μg/ml (3.125 nM), gum arabic 100 μg/ml): 0.905 | absorbance at 405 nm ([11]; [VHH] 0.1875 μg/ml (12.5 nM), gum arabic 100 μg/ml): 1.518 | absorbance at 405 nm ([11]; [VHH] 0.75 μg/ml (50 nM), gum arabic 100 μg/ml): 1.904 | absorbance at 405 nm ([11]; [VHH] 3 μg/ml (200 nM), gum arabic 100 μg/ml): 2.154 | absorbance at 405 nm ([11]; [VHH] 3 μg/ml (200 nM), no gum arabic coat (−)): 0.090 | area of bound microcapsules [12]: 47.9 | counts of bound microcapsules (microcapsules) [13]: 601 | counts of bound microcapsules (microcapsules) [14]: 386 | surface area of bound microcapsules [15]: 27.7 | absorbance at 405 nm [16]: 4

Source: patent US20130217572A1, “SPECIFIC DELIVERY OF AGROCHEMICALS” (VRIJE UNIVERSITEIT BRUSSEL, priority 2010, published 2013)
